To fix the notation:
B1: hIL-15 V49R/D30E (ligand)
chain: NWVNVISDLKKIEDLIQSMHIDATLYTESEVHPSCKVTAMKCFLLELQRISLESGDASIHDTVENLIILANNSLSSNGNVTESGCKECEELEEKNIKEFLQSFVHIVQMFINTGGGGSGHHHHHHHHGGGLNDIFEAQKIEWHE
B2: hIL-15 V49R/I68L (ligand)
chain: B1 chain with E30D, I68L
B3: hIL-15 V49R/E64T (ligand)
chain: B1 chain with E30D, E64T
B4: hIL-15 V49R/D30I (ligand)
chain: B1 chain with E30I
B5: hIL-15 V49R/H32Q (ligand)
chain: B1 chain with E30D, H32Q
B6: hIL-15 V49R/D30K (ligand)
chain: B1 chain with E30K
B7: hIL-15 V49R/D30H (ligand)
chain: B1 chain with E30H
B8: hIL-15 V49R/D30L (ligand)
chain: B1 chain with E30L
B9: hIL-15 V49R/H32V (ligand)
chain: B1 chain with E30D, H32V
B10: hIL-15 V49R/I111A (ligand)
chain: B1 chain with E30D, I111A
B11: hIL-15 V49R/H32L (ligand)
chain: B1 chain with E30D, H32L
B12: hIL-15 V49R/H32G (ligand)
chain: B1 chain with E30D, H32G
B13: hIL-15 V49R/H32S (ligand)
chain: B1 chain with E30D, H32S
B14: hIL-15 V49R/H32M (ligand)
chain: B1 chain with E30D, H32M
B15: hIL-15 V49R/I68R (ligand)
chain: B1 chain with E30D, I68R
B16: hIL-15 V49R/H32E (ligand)
chain: B1 chain with E30D, H32E
B17: hIL-15 V49R/I68T (ligand)
chain: B1 chain with E30D, I68T
B18: hIL-15 V49R/H32P (ligand)
chain: B1 chain with E30D, H32P
B19: hIL-15 V49R/I68V (ligand)
chain: B1 chain with E30D, I68V
B20: hIL-15 V49R/D30T (ligand)
chain: B1 chain with E30T
B21: hIL-15 V49R/E64H (ligand)
chain: B1 chain with E30D, E64H
B22: hIL-15 V49R/H32N (ligand)
chain: B1 chain with E30D, H32N
B23: hIL-15 V49R/I68M (ligand)
chain: B1 chain with E30D, I68M
B24: hIL-15 V49R/H32D (ligand)
chain: B1 chain with E30D, H32D
B25: hIL-15 V49R/H32R (ligand)
chain: B1 chain with E30D, H32R
B26: hIL-15 V49R/E64A (ligand)
chain: B1 chain with E30D, E64A
B27: hIL-15 V49R/I68Y (ligand)
chain: B1 chain with E30D, I68Y
B28: hIL-15 V49R/D30N (ligand)
chain: B1 chain with E30N
B29: hIL-15 V49R/D30M (ligand)
chain: B1 chain with E30M
B30: hIL-15 V49R/D30S (ligand)
chain: B1 chain with E30S
B31: hIL-15 V49R/I68A (ligand)
chain: B1 chain with E30D, I68A
B32: hIL-15 V49R/I68N (ligand)
chain: B1 chain with E30D, I68N
B33: hIL-15 V49R/E64D (ligand)
chain: B1 chain with E30D, E64D
B34: hIL-15 V49R/H32A (ligand)
chain: B1 chain with E30D, H32A
B35: hIL-15 V49R/E64Q (ligand)
chain: B1 chain with E30D, E64Q
B36: hIL-15 V49R/D61A (ligand)
chain: B1 chain with E30D, D61A
B37: hIL-15 V49R/D30Q (ligand)
chain: B1 chain with E30Q
B38: hIL-15 V49R/I68F (ligand)
chain: B1 chain with E30D, I68F
B39: hIL-15 V49R/D30R (ligand)
chain: B1 chain with E30R
B40: hIL-15 V49R/D30F (ligand)
chain: B1 chain with E30F
B41: hIL-15 V49R/D30V (ligand)
chain: B1 chain with E30V
B42: hIL-15 V49R/D30Y (ligand)
chain: B1 chain with E30Y
B43: hIL-15 V49R/H32K (ligand)
chain: B1 chain with E30D, H32K
B44: hIL-15 V49R/I68H (ligand)
chain: B1 chain with E30D, I68H
B45: hIL-15 V49R/E64N (ligand)
chain: B1 chain with E30D, E64N
B46: hIL-15 V49R/H32I (ligand)
chain: B1 chain with E30D, H32I

Where a chain is given by its changes, count along the chain named. In names and notes the source's numbering stands.

T1 sequence (Q13261 31-205 limits assumed): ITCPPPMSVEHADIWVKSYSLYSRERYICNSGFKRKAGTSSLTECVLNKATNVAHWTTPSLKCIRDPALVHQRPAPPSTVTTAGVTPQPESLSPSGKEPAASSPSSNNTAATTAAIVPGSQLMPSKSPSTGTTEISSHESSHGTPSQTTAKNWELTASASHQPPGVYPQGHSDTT

One test has as its target T1, human IL-15Rα (human, UniProt Q13261 31-205, limits assumed).
T1 construct: also called hIL-15Rα; IL-15 receptor alpha
The experiment in a line: SPR, steady state.
Take B1: the Kd is 124 nM.

Consider B2, for which binding was characterised by a dissociation constant (Kd) of 73.6 nM. This Kd lies about 1.7-fold lower than the previous one.

B3: the Kd is 141 nM.

For the molecule B4, the Kd amounted to 197 nM. The Kd values of the last two molecules are within 1.5-fold of each other.

As for B5, the Kd came to 64 nM.

As to B6, the Kd worked out at 158 nM.

As for B7, the affinity, expressed as Kd, was 121 nM.

As to B8, the Kd stood at 237 nM.

Turning to B9, the affinity, expressed as Kd, was 99.8 nM.

Consider B10, for which the Kd amounted to 173 nM.

Molecule B11 showed a Kd of 189 nM.

B12 showed a Kd of 249 nM.

Turning to B13, binding was characterised by a dissociation constant (Kd) of 110 nM. This Kd lies about 2.3-fold lower than the previous one.

For B14, binding was characterised by a dissociation constant (Kd) of 134 nM.

For the molecule B15, the Kd was determined as 102 nM.

In turn, B16 had an equilibrium dissociation constant (Kd) of 108 nM.

Take B17: the Kd turned out to be 76.3 nM.

The molecule B18 came in with a Kd of 162 nM.

B19 displayed a Kd of 104 nM. This Kd lies about 1.6-fold lower than the previous one.

B20 returned a Kd of 184 nM.

B21 showed a Kd of 112 nM.

As to B22, binding was characterised by a dissociation constant (Kd) of 85.9 nM.

As to B23, the Kd came to 96.2 nM.

For the molecule B24, the Kd amounted to 85.5 nM. This Kd and that of the molecule before are within 1.5-fold of each other.

B25 yielded a Kd of about 131 nM.

In the case of B26, the Kd turned out to be 130 nM.

With B27, the Kd worked out at 92.9 nM.

B28: the affinity, expressed as Kd, was 94 nM.

Turning to B29, the affinity, expressed as Kd, was 142 nM.

Regarding B30, the Kd was found to be 146 nM. The Kd values of the last two molecules are within 1.5-fold of each other.

In turn, B31 gave a Kd of 113 nM.

Regarding B32, the Kd turned out to be 85 nM. This Kd and that of the molecule before are within 1.5-fold of each other.

In turn, B33 registered a Kd of 108 nM.

On to B34, for which the Kd stood at 152 nM.

For B35, binding was put at a Kd of 127 nM.

Turning to B36, the dissociation constant Kd was 78.2 nM.

With B37, the dissociation constant (Kd) was 111 nM. This Kd and that of the molecule before are within 1.5-fold of each other.

Take B38: the Kd was determined as 78.5 nM. The Kd values of the last two molecules are within 1.5-fold of each other.

Turning to B39, binding was put at a Kd of 155 nM.

In turn, B40 came in with a Kd of 166 nM. The Kd values of the last two molecules are within 1.5-fold of each other.

In turn, B41 gave a dissociation constant (Kd) of 153 nM.

In the case of B42, the equilibrium dissociation constant (Kd) came out at 159 nM.

Turning to B43, binding was put at a Kd of 92.8 nM.

For the molecule B44, the Kd was determined as 87.6 nM.

Molecule B45 had a Kd of 115 nM.

B46 had a Kd of 113 nM. This Kd and that of the molecule before are within 1.5-fold of each other.

In the next test the target is T2, human IL-2Rβ (human, UniProt P14784 27-240, limits assumed).
T2 construct: also called hIL-2Rβ; IL-2 receptor beta
T2 sequence (looked up): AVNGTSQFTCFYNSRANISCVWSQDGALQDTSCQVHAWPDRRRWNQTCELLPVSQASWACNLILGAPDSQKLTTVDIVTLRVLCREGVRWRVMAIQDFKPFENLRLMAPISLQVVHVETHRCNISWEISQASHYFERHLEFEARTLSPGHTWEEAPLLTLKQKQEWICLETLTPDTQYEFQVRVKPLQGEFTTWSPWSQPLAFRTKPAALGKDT
The experiment in a line: SPR, steady state.
On to B1, for which binding was put at a Kd of 165 nM.

B2 registered a Kd of 245 nM.

B3 displayed a Kd of over 500 nM.

B4: the Kd is 201 nM.

Molecule B5 displayed a dissociation constant Kd of 147 nM.

Regarding B6, the Kd was found to be 351 nM. Compared with the last molecule, the Kd is about 2.4-fold higher.

On to B7, for which the equilibrium dissociation constant (Kd) was 149 nM.

In the case of B8, the Kd came out at 277 nM.

With B9, binding was put at a Kd of 247 nM.

With B10, binding was characterised by a dissociation constant (Kd) of 375 nM.

Molecule B11 came in with a Kd of 159 nM. This Kd is about 2.4-fold lower than that of the molecule before.

Turning to B12, the Kd was found to be 459 nM.

Regarding B13, the Kd is 176 nM.

B14 registered a Kd of 161 nM.

B15: the Kd was over 500 nM.

B16: the dissociation constant Kd was 130 nM.

Take B17: the Kd was over 500 nM.

For the molecule B18, the Kd is 146 nM.

The molecule B19 gave a Kd of 296 nM.

B20 came in with a Kd of 269 nM.

B21 displayed a Kd of over 1000 nM.

Regarding B22, the Kd worked out at 124 nM. This lies in the sub-micromolar range.

B23 registered a Kd of over 1000 nM.

In turn, B24 returned a Kd of 123 nM.

As to B25, the Kd is 156 nM.

With B26, the Kd was over 500 nM.

On to B27, for which the equilibrium dissociation constant (Kd) is over 1000 nM.

B28 showed a Kd of 163 nM.

B29 gave a Kd of 238 nM.

Consider B30, for which the Kd worked out at 249 nM.

With B31, the Kd is over 500 nM.

B32 registered a Kd of over 1000 nM.

For the molecule B33, the Kd stood at 291 nM.

B34: the Kd was 218 nM.

Turning to B35, the Kd is over 500 nM.

B36 had a Kd of over 500 nM.

For B37, the affinity, expressed as Kd, was 197 nM.

Molecule B38 registered a dissociation constant (Kd) of over 1000 nM.

In turn, B39 yielded a Kd of 290 nM. This lies in the sub-micromolar range.

B40 displayed a dissociation constant (Kd) of 213 nM. This Kd and that of the molecule before are within 1.5-fold of each other.

B41 yielded a Kd of 258 nM.

As to B42, the dissociation constant (Kd) was 231 nM.

B43 had a Kd of 149 nM.

B44 returned a Kd of over 1000 nM.

Take B45: the Kd is over 500 nM.

On to B46, for which the Kd turned out to be 110 nM.
